Here are results for twelve molecules from doi:10.1101/2025.05.23.649291 (bioRxiv, 2025).

Numbering of substitutions follows the chain as printed. Read-outs that look alike come from different tables or passages of the source.

For test [1], the target named is T1, human TfR1 fused to EGFP, on CHO-hTfR1-EGFP cells (human, UniProt P02786). The test is described as follows: flow cytometry on cells. Background: A flow cytometer gives signals particle by particle.
Test [2] concerns the target T2, mouse TfR1 fused to EGFP, on CHO-mTfR1-EGFP cells (Mus musculus, UniProt Q62351). The test is described as follows: immunostaining of cells or tissue.
The target in test [3] is T3, rhesus monkey TfR1 fused to EGFP, on CHO-rhTfR1-EGFP cells (Macaca mulatta, UniProt H9Z2T8). The test is described as follows: immunostaining of cells or tissue.
The target of test [4] is mFc-mouse TfR1 ectodomain (mouse IgG2a Fc fusion) (Mus musculus, UniProt Q62351). In words: SPR.
Test [5] concerns the target T3, rhesus monkey TfR1 fused to EGFP, on …. In words: flow cytometry on cells.
For test [6], the target named is mouse NTSR1 fused to GFP, on Expi293 cells (mouse, UniProt O88319). In words: flow cytometry on cells.
The target of test [7] is mFc-human TfR1 ectodomain (mouse IgG2a Fc fusion) (Homo sapiens, UniProt P02786). In words: SPR. (In SPR one partner is held on a chip, and binding of the other changes the refractive index at the surface.)
In test [8] the target is mFc-rhesus monkey TfR1 ectodomain (mouse IgG2a Fc fusion) (Macaca mulatta, UniProt H9Z2T8). In words: SPR.
Test [9] has as its target T1, human TfR1 fused to EGFP, on …. The test is described as follows: immunostaining of cells or tissue.
Test [10] deals with T2, mouse TfR1 fused to EGFP, on …. The test is described as follows: immunostaining of cells or tissue. This is another data set of the same source.
In test [11] the target is T3, rhesus monkey TfR1 fused to EGFP, on …. In words: immunostaining of cells or tissue. The source holds these as a separate data set.

T2 sequence (Q62351 whole entry, the tested form may be a part): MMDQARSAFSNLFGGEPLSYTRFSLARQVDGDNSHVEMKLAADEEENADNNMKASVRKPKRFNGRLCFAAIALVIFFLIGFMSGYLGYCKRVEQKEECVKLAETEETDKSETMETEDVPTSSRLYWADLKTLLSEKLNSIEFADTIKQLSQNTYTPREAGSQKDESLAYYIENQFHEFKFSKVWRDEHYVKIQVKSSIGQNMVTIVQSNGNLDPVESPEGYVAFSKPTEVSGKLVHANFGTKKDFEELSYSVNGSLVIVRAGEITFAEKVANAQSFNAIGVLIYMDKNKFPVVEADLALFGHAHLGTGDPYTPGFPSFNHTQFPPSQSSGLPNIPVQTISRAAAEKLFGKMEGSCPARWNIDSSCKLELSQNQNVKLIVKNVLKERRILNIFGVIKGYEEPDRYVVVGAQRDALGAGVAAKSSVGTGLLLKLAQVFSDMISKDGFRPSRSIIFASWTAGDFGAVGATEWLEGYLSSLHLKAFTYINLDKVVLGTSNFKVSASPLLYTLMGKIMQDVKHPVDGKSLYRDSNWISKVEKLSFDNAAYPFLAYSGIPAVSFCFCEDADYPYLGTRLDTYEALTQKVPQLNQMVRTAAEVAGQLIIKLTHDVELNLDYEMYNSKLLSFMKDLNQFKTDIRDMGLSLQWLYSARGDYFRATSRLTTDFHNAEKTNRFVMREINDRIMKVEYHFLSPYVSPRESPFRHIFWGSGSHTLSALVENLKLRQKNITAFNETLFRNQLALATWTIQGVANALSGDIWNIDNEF
Sequence of mFc-mouse TfR1 ectodomain (mouse IgG2a Fc fusion) (Q62351 89-763): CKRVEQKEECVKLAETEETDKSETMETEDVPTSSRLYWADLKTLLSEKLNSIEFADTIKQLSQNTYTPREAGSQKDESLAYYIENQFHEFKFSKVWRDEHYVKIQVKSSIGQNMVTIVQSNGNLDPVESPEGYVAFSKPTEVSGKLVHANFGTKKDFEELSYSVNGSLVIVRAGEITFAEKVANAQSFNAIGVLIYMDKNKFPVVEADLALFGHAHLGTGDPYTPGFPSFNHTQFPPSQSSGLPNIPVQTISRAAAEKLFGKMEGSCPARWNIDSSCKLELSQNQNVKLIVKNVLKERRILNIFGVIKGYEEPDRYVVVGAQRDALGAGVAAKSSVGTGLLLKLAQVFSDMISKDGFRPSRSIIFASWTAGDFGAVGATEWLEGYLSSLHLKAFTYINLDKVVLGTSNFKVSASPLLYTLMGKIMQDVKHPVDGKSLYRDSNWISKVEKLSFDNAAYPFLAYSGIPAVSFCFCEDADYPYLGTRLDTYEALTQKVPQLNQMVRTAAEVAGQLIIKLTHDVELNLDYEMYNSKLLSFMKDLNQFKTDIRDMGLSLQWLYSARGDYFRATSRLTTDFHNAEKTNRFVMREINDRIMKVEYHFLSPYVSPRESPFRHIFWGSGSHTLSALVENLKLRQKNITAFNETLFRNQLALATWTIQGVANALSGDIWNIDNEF
Sequence of mouse NTSR1 fused to GFP, on Expi293 cells (O88319 whole entry, the tested form may be a part): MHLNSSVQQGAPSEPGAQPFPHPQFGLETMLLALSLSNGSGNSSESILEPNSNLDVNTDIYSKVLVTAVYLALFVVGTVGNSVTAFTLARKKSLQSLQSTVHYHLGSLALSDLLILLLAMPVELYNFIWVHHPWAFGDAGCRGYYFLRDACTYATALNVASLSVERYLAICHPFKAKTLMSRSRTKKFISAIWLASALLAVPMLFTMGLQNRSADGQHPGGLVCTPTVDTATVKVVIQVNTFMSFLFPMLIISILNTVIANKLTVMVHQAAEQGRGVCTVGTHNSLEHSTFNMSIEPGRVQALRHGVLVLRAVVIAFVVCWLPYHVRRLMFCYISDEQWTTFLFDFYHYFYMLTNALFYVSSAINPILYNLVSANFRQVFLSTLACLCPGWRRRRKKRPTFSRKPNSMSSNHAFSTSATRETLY

B1: VHH B6 (VHH)
VHH: EVQLVESGGGLVQPGGSLRLSCTASGGPIEQYPMGWFRRAPGKERELVASISRSGDGTYYAISSVKGRFTISRDNAENTVFLQMNSLKPDDTAVYYCGAGINPTKIWGQGTQVTVSS
A word on the Kd: it is the constant that tells how readily two partners part at equilibrium. With B1, the Kd in [1] worked out at 2.7 nM. Moreover, the binding result in test [2] and in test [3] was “no binding (tested: 50 µg/ml)” throughout.

B2: VHH B8 (VHH)
chain: EVQLVESGGGVVQPGGSLRLSCAASGEIFSINFMRWYRQAPGKQREWVAGFTRDGSTNYPDSAKGRFTISRDNAKNTVYLQIDSLKPEDTAVYYCYMLDTWGQGTQVTVSS
On to B2, for which the values for the Kd in test [4] and in test [1] were around 30 nM and 2.4 nM, respectively. Further, the binding result in [5] is given as “binds”.

B3: B8-NT(8-13) (VHH)
VHH: B2 chain
For the molecule B3, in test [6], the binding result is on record as “binds”.

B4: B8V37 (VHH)
VHH: B2 chain with R71E, D99R
Regarding B4, in [7], the binding result was “binds”.

B5: B8V31 (VHH)
chain: B2 chain with F29K
Take B5: the binding result in [7] and in [8] was “binds” each time.

B6: B8V40 (VHH)
chain: B2 chain with F29K, A49S
With B6, the binding result in [7] and in test [8] was “binds” in each case.

B7: B8V34-NT(8-13) (VHH)
VHH: B2 chain with F29R, S62I
In turn, B7 returned a Kd in test [7] of 16.9 nM.

B8: VHH H3 (VHH)
VHH: EVQLVESGGGEVQPGGSLKLSCVASGTDFSINFVRWYRQRPGKQREWVAGFTANGDTNYPDSMKGRFTISRDNAKNTVYLQINSLKSEDTAVYYCYMLDNWGQGTQVTVSS
As to B8, the binding result in test [5], in [9] and in test [10] was “binds” in each case.

B9: VHH C5 (VHH)
chain: EVQLVESGGGVVQPGGSLKLSCVASGTDFSINFIRWYRQAPGKQREFVAGFTATGNTNYADSMKGRFTISRDNTKNAVYLQIDSLKPEDTAVYYCYMLDKWGQGTQVTVSS
B9: the Kd in test [4] was around 110 nM; in [1], 3.1 nM. The binding result in [11] is recorded as “binds”.

B10: C5neg-NT(8-13) (VHH)
VHH: B9 chain with Y96A, L98A
Regarding B10, the binding result in test [6] is recorded as “binds”.

B11: C5V30 (VHH)
VHH: B9 chain with F29K
In the case of B11, the binding result in test [7] is listed as “binds”.

B12: C5-NT(8-13) (VHH)
VHH: B9 chain
Usually koff stands for the rate constant with which the complex falls apart. One may read the kon as the rate constant with which the complex forms. On to B12, for which, in [7], binding was characterised by a dissociation constant (Kd) of 0.1 nM, the koff stood at 0.00016 s⁻¹ and the kon came out at 1.36e+06 M⁻¹ s⁻¹.
